Reference: patent US20160215065A1 (Genentech, published 2016)
Several values for one entry are separate records, joined by “and”; a condition that tells them apart may be missing. Identical values can stand only once.

T1: mouse active NSP4 (mA) (mouse, UniProt Q14B24 36-284)
T1 construct: mature; also called mA-NSP4; mA (NSP4)
T1 sequence (looked up): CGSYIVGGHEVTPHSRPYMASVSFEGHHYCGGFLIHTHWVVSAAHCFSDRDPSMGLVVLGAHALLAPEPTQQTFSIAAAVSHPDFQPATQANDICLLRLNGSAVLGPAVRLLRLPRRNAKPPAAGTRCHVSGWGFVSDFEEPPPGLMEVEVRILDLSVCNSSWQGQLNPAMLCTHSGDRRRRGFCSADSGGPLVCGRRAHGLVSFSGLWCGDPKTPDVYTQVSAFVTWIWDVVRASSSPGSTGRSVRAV

T2: human active NSP4 (hA) (human, UniProt Q6UWY2 34-283)
T2 construct: range 34-283; For crystals partly deglycosylated with Endo F3 (FFR-cmk complex) or fully glycosylated (VLK-cmk complex); also called hA-NSP4; hA (NSP4)
T2 sequence (looked up): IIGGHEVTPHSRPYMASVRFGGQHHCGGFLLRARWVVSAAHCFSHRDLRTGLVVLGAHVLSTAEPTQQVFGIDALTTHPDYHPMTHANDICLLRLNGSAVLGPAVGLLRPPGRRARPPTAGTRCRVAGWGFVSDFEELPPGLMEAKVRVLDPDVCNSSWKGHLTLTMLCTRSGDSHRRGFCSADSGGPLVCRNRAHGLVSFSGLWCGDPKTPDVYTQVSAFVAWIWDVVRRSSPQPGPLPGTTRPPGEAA

T3: mouse zymogen NSP4 (mZ) (mouse, UniProt Q14B24 36-284)
T3 construct: mature; Expressed in CHO cells; also called mZ-NSP4; mZ (NSP4); not shown: N-terminal FLAG tag cleavable by enteropeptidase (cleavage after Asp-Asp-Asp-Asp-Lys)
T3 sequence (looked up): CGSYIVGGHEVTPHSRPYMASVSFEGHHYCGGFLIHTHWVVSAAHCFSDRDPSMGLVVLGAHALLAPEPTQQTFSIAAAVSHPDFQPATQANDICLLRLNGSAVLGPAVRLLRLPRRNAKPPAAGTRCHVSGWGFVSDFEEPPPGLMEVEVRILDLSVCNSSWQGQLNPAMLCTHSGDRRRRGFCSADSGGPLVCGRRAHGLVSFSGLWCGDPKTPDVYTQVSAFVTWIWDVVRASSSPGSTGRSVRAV

T4: mouse active NSP4 (mA) (mouse), Q14B24
T4 chain: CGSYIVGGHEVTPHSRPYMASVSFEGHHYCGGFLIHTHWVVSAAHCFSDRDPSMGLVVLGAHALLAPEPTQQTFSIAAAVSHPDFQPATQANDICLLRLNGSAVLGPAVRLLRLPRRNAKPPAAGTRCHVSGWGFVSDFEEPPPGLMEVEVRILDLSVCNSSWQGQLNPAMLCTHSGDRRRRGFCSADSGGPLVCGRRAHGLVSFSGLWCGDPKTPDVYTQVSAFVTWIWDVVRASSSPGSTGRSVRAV


Key:
[1] = target: human zymogen NSP4 (hZ) (human) (UniProt Q6UWY2); assay: competition phage ELISA (phage IC50); soluble hZ-NSP4 against plate-coated NSP4
mouse active NSP4 (mA) = target: T1, mouse active NSP4 (mA); assay: BLI affinity class in summary table
human active NSP4 (hA) = target: T2, human active NSP4 (hA); assay: BLI affinity class in summary table
mouse zymogen NSP4 (mZ) = target: T3, mouse zymogen NSP4 (mZ); assay: BLI affinity class in summary table
[2] = target: human zymogen NSP4 (hZ) (human) (UniProt Q6UWY2); assay: BLI affinity class in summary table
[3] = target: T4, mouse active NSP4 (mA) (mouse), Q14B24; assay: BLI affinity class in summary table; conditions: remark: other sources report otherwise
[4] = target: T4, mouse active NSP4 (mA) (mouse), Q14B24; assay: competition phage ELISA (phage IC50); soluble mA-NSP4 against plate-coated NSP4; conditions: remark: other sources report otherwise

Row | Binder | IC50 [1] | Kd (mouse active NSP4 (mA)) | Kd (human active NSP4 (hA)) | Kd (mouse zymogen NSP4 (mZ)) | Kd [2] | Kd [3] | IC50 [4]
1 | anti-NSP4 antibody 2-4 (antibody, human IgG1, V domains shown, also called clone 2-4) VH: EVQLVESGGGLVQPGGSLRLSCAASGFTFSDYWISWVRQAPGKGLEWVAGISPNNGDTYYADSVKGRFTISADTSKNTAYLQMNSLRAEDTAVYYCAREDDDERDYAMDYWGQGTLVTVSS VL: DIQMTQSPSSLSASVGDRVTITCRASQDVSTAVAWYQQKPGKAPKLLIYSASFLYSGVPSRFSGSGSGTDFTLTISSLQPEDFATYYCQQSYTTPPTFGQGTKVEIKR | 2.3 nM | < 50 nM | < 50 nM | < 50 nM | < 50 nM | – | –
2 | anti-NSP4 antibody 2-3 (antibody, human IgG1, V domains shown, also called clone 2-3) VH: EVQLVESGGGLVQPGGSLRLSCAASGFTFTDSDISWVRQAPGKGLEWVAWISPSDGATDYADSVKGRFTISADTSKNTAYLQMNSLRAEDTAVYYCAHEASDDDYAIDYWGQGTLVTVSS VL: DIQMTQSPSSLSASVGDRVTITCRASQDVSTAVAWYQQKPGKAPKLLIYSASFLYSGVPSRFSGSGSGTDFTLTISSLQPEDFATYYCQQSYTTPPTFGQGTKVEIKR | 3.07 nM | < 50 nM | < 50 nM | < 50 nM | < 50 nM | – | –
3 | anti-NSP4 antibody 4-2 (antibody, human IgG1, V domains shown, also called clone 4-2) VH: EVQLVESGGGLVQPGGSLRLSCAASGFTFSGSDISWVRQAPGKGLEWVGEIYPSNGDTYYADSVKGRFTISADTSKNTAYLQMNSLRAEDTAVYYCARSVRPSWWAMDYWGQGTLVTVSS VL: DIQMTQSPSSLSASVGDRVTITCRASQDVSTAVAWYQQKPGKAPKLLIYSASFLYSGVPSRFSGSGSGTDFTLTISSLQPEDFATYYCQQSYTTPPTFGQGTKVEIKR | – | – | < 50 nM | – | > 50 nM and < 1000 nM | – | –
4 | anti-NSP4 antibody 1-5 (antibody, human IgG1, V domains shown) VH: EVQLVESGGGLVQPGGSLRLSCAASGFTFTNNSISWVRQAPGKGLEWVGAISPNNGSTYYADSVKGRFTISADTSKNTAYLQMNSLRAEDTAVYYCARNAWHYSWVGVMDYWGQGTLVTVSS VL: DIQMTQSPSSLSASVGDRVTITCRASQDVSTAVAWYQQKPGKAPKLLIYSASFLYSGVPSRFSGSGSGTDFTLTISSLQPEDFATYYCQQSYTTPPTFGQGTKVEIKR | 114 nM | – | – | – | > 50 nM and < 1000 nM | – | –
5 | anti-NSP4 antibody 2-2 (antibody, human IgG1, V domains shown, also called clone 2-2) VH: EVQLVESGGGLVQPGGSLRLSCAASGFTFSSTAISWVRQAPGKGLEWVGEIYPSDGYTDYADSVKGRFTISADTSKNTAYLQMNSLRAEDTAVYYCARVKWAVSSLGVMDYWGQGTLVTVSS VL: DIQMTQSPSSLSASVGDRVTITCRASQDVSTAVAWYQQKPGKAPKLLIYSASFLYSGVPSRFSGSGSGTDFTLTISSLQPEDFATYYCQQSYTTPPTFGQGTKVEIKR | 10.4 nM | – | – | < 50 nM | < 50 nM | – | –
6 | anti-NSP4 antibody 5-3 (antibody, V domains shown) VH: EVQLVESGGGLVQPGGSLRLSCAASGFTFSGNDISWVRQAPGKGLEWVAGISPYGGSTYYADSVKGRFTISADTSKNTAYLQMNSLRAEDTAVYYCARRVSFYSRHAGMDYWGQGTLVTVSS VL: DIQMTQSPSSLSASVGDRVTITCRASQDVSTAVAWYQQKPGKAPKLLIYSASFLYSGVPSRFSGSGSGTDFTLTISSLQPEDFATYYCQQSYTTPPTFGQGTKVEIKR | – | – | – | – | – | < 50 nM | 319 nM
7 | anti-NSP4 antibody 5-4 (antibody, V domains shown) VH: EVQLVESGGGLVQPGGSLRLSCAASGFTFTSYAISWVRQAPGKGLEWVAGISPSNGYTNYADSVKGRFTISADTSKNTAYLQMNSLRAEDTAVYYCARAGRWTHSDIDYWGQGTLVTVSS VL: DIQMTQSPSSLSASVGDRVTITCRASQDVSTAVAWYQQKPGKAPKLLIYSASFLYSGVPSRFSGSGSGTDFTLTISSLQPEDFATYYCQQSYTTPPTFGQGTKVEIKR | – | – | – | – | – | < 50 nM | 60.5 nM
8 | anti-NSP4 antibody 1-2 (antibody, human IgG1, V domains shown) VH: EVQLVESGGGLVQPGGSLRLSCAASGFTFSGYSIHWVRQAPGKGLEWVAGISPTNGYTDYADSVKGRFTISADTSKNTAYLQMNSLRAEDTAVYYCARLVFYRGVMDYWGQGTLVTVSS VL: DIQMTQSPSSLSASVGDRVTITCRASQDVSTAVAWYQQKPGKAPKLLIYSASFLYSGVPSRFSGSGSGTDFTLTISSLQPEDFATYYCQQSYTTPPTFGQGTKVEIKR | 22.1 nM | – | – | – | < 50 nM | – | –
9 | anti-NSP4 antibody 4-4 (antibody, human IgG1, V domains shown, also called clone 4-4) VH: EVQLVESGGGLVQPGGSLRLSCAASGFTFTSTSIHWVRQAPGKGLEWVAEITPHGGYTNYADSVKGRFTISADTSKNTAYLQMNSLRAEDTAVYYCARGRTKWGWLYGMDYWGQGTLVTVSS VL: DIQMTQSPSSLSASVGDRVTITCRASQDVSTAVAWYQQKPGKAPKLLIYSASFLYSGVPSRFSGSGSGTDFTLTISSLQPEDFATYYCQQSYTTPPTFGQGTKVEIKR | – | – | < 50 nM | – | > 50 nM and < 1000 nM | – | –
10 | anti-NSP4 antibody 1-1 (antibody, human IgG1, V domains shown) VH: EVQLVESGGGLVQPGGSLRLSCAASGFTFSGSWISWVRQAPGKGLEWVGTISPYNGSTYYADSVKGRFTISADTSKNTAYLQMNSLRAEDTAVYYCARVLRPKVYASVMDYWGQGTLVTVSS VL: DIQMTQSPSSLSASVGDRVTITCRASQDVSTAVAWYQQKPGKAPKLLIYSASFLYSGVPSRFSGSGSGTDFTLTISSLQPEDFATYYCQQSYTTPPTFGQGTKVEIKR | 155 nM | – | – | – | > 50 nM and < 1000 nM | – | –
11 | anti-NSP4 antibody 2-5 (antibody, human IgG1, V domains shown, also called clone 2-5) VH: EVQLVESGGGLVQPGGSLRLSCAASGFTFTGYGISWVRQAPGKGLEWVGWIYPASGATYYADSVKGRFTISADTSKNTAYLQMNSLRAEDTAVYYCARHRAFDWYPYYIGSSVMDYWGQGTLVTVSS VL: DIQMTQSPSSLSASVGDRVTITCRASQDVSTAVAWYQQKPGKAPKLLIYSASFLYSGVPSRFSGSGSGTDFTLTISSLQPEDFATYYCQQSYTTPPTFGQGTKVEIKR | 22 nM | – | – | < 50 nM | < 50 nM | – | –
12 | anti-NSP4 antibody 1-3 (antibody, human IgG1, V domains shown) VH: EVQLVESGGGLVQPGGSLRLSCAASGFTFSDNWISWVRQAPGKGLEWVGYIYPASGYTDYADSVKGRFTISADTSKNTAYLQMNSLRAEDTAVYYCASDSPHAYWYAMDYWGQGTLVTVSS VL: DIQMTQSPSSLSASVGDRVTITCRASQDVSTAVAWYQQKPGKAPKLLIYSASFLYSGVPSRFSGSGSGTDFTLTISSLQPEDFATYYCQQSYTTPPTFGQGTKVEIKR | 52 nM | – | – | – | > 50 nM and < 1000 nM | – | –
13 | anti-NSP4 antibody 2-1 (antibody, human IgG1, V domains shown, also called clone 2-1) VH: EVQLVESGGGLVQPGGSLRLSCAASGFTFTDYSIHWVRQAPGKGLEWVAEIYPYSGDTYYADSVKGRFTISADTSKNTAYLQMNSLRAEDTAVYYCARDGDGWFDWAMDYWGQGTLVTVSS VL: DIQMTQSPSSLSASVGDRVTITCRASQDVSTAVAWYQQKPGKAPKLLIYSASFLYSGVPSRFSGSGSGTDFTLTISSLQPEDFATYYCQQSYTTPPTFGQGTKVEIKR | 7.62 nM | < 50 nM | < 50 nM | < 50 nM | < 50 nM | – | –
14 | anti-NSP4 antibody 5-1 (antibody, human IgG1, V domains shown) VH: EVQLVESGGGLVQPGGSLRLSCAASGFTFSGSGIHWVRQAPGKGLEWVAWISPTGGNTYYADSVKGRFTISADTSKNTAYLQMNSLRAEDTAVYYCAKSLFHNVAFDYWGQGTLVTVSS VL: DIQMTQSPSSLSASVGDRVTITCRASQDVSTAVAWYQQKPGKAPKLLIYSASFLYSGVPSRFSGSGSGTDFTLTISSLQPEDFATYYCQQSYTTPPTFGQGTKVEIKR | – | – | – | – | – | < 50 nM | 9.93 nM
15 | anti-NSP4 antibody 3-2 (antibody, human IgG1, V domains shown, also called Ab 3-2; clone 3-2) VH: EVQLVESGGGLVQPGGSLRLSCAASGFTFSDYSISWVRQAPGKGLEWVGEINPAGGATYYADSVKGRFTISADTSKNTAYLQMNSLRAEDTAVYYCARGDFPFWSDAYYVMDYWGQGTLVTVSS VL: DIQMTQSPSSLSASVGDRVTITCRASQDVSTAVAWYQQKPGKAPKLLIYSASFLYSGVPSRFSGSGSGTDFTLTISSLQPEDFATYYCQQSYTTPPTFGQGTKVEIKR | – | < 50 nM | – | < 50 nM | – | – | –
16 | anti-NSP4 antibody 3-5 (antibody, human IgG1, V domains shown, also called Ab 3-5; Ab35) VH: EVQLVESGGGLVQPGGSLRLSCAASGFTFSDNDISWVRQAPGKGLEWVGSISPDNGDTNYADSVKGRFTISADTSKNTAYLQMNSLRAEDTAVYYCARDDVPAVFTSAMDYWGQGTLVTVSS VL: DIQMTQSPSSLSASVGDRVTITCRASQDVSTAVAWYQQKPGKAPKLLIYSASFLYSGVPSRFSGSGSGTDFTLTISSLQPEDFATYYCQQSYTTPPTFGQGTKVEIKR | – | < 50 nM | < 50 nM | < 50 nM | < 50 nM | – | –
